Laboratory results reported in the supplement of paper PMC10567573.

B1: ZNF263 (parent)
chain: RTHTGEKPYKCTLCGENFSHRSNL

Variants of: B1
Assay: protein stability index of a GFP-peptide fusion (GPS, HEK-293T) (PSI 1-6); higher = more stable
Details: c terminus: a fixed tail appended
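Also: lentivirally expressed fusions sorted by FACS into six bins by GFP to DsRed ratio, PSI derived from sequencing read proportions per bin multiplied by bin number.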

Protein stability index of substitutions, site by site:
E6: D 2.37; K 1.9; Q 2.34; N 1.67; T 2.26; H 1.71; A 2.15; L 2.18; C 2.44; Y 2.64; W 1.58; S 2.39; P 2.68; R 2.34; V 2.08; F 1.62; G 1.88; M 2.37; I 1.69
C14: M 3.43; D 2.96; F 2.66; A 3.07; L 2.73; N 3.19; G 3.13; P 2.83; H 2.84; S 3.01; R 3.17; Q 3.45; K 3.48; I 2.98; E 4.05
C11: T 2.91; F 2.06; P 3.02; H 3.13; G 3.59; M 2.78; V 2.51; N 3.16; E 3.97; I 2.56; Y 2.42; K 2.92; A 2.67; D 3.87; R 2.81; L 2.9; W 2.04; Q 3.24; S 3.36
K7: G 2.31; I 1.99; L 1.86; E 2.12; S 2.2; F 1.85; A 2.04; W 2.03; R 2.04; C 3.39; P 1.62; H 2.19; N 1.9; T 1.94; Y 1.73; V 2.37; D 2.02; Q 1.71; M 1.97
K10: I 1.72; V 2.05; E 2.04; G 2.06; F 1.76; W 2.38; Y 1.93; D 2.68; Q 2.36; P 2.03; T 1.78; L 1.86; H 2.2; C 2.44; A 1.75; S 1.58; R 1.81; M 1.97; N 1.91
P8: D 2.44; N 1.96; V 1.91; I 1.63; H 2.06; A 2.1; K 2.06; S 1.78; G 2.44; Q 2.09; F 1.38; T 1.9; R 1.99; E 2.82; M 2.3; L 1.98; C 2.51; W 1.46; Y 1.64
L13: P 2.31; F 2.2; G 2.42; C 2.81; H 2.06; W 1.88; V 2.14; K 2.18; I 2.44; M 1.76; D 3.21; Y 2.04; T 2.57; A 2.18; Q 2.16; N 3.03; S 2.64; E 3.3; R 1.56
Y9: M 1.69; I 1.52; T 2.33; A 2.15; H 2.61; S 2.38; K 2.45; D 2.44; N 2.1; C 3.37; L 1.79; P 2.04; E 2.4; F 1.96; R 2.14; V 2.33; G 1.6; Q 1.84; W 1.72
T12: L 2.23; S 1.87; K 1.98; F 2.1; G 1.74; D 2.01; R 2.37; N 2.44; A 2.07; H 1.68; V 1.65; E 1.8; C 1.84; P 2.4; I 1.92; Q 2.04; Y 1.5; W 2.22; M 1.43
